Patent US20060073571A1 (CORNELL RESEARCH FOUNDATION, published 2006)

B1: recombinant chimeric protein hLH-R-ECD-hCG-β-CTP (extracellular domain of hLH-R, Gly-Thr linker, carboxyl terminal peptide of hCG-β) (receptor)
chain: LPRALREALCPEPCNCVPDGALRCPGPTAGLTRLSLAYLPVKVIPSQAFRGLNEVIKIEISQIDSLERIEANAFDNLLNLSEILIQNTKNLRYIEPGAFINLPRLKYLSICNTGIRKFPDVTKVFSSESNFILEICDNLHITTIPGNAFQGMNNESVTLKLYGNGFEEVQSHAFNGTTLTSLELKENVHLEKMHNGAFRGATGPKTLDISSTKLQALPSYGLESIQRLIATSSYSLKKLPSRETFVNLLEATLTYPSHCCAFRNLPTKEQNFSHSISENFSKQCESTVRKVSNKTLYSSMLAESELSGWDYEYGFCLPKTPRCAPEPGTLTCDDPRFQDSSSSKAPPPSLPSPSRLPGPSDTPILPQ
notes: The vector was pBlueBac4.5/V5-His; also called chimera 3; hLH-R-ECD/hCG-CTP
B2: human chorionic gonadotropin (hCG), highly purified, CR-125, NICHD (ligand)
chain 1: not shown
chain 2: SKEPLRPRCRPINATLAVEKEGCPVCITVNTTICAGYCPTMTRVLQGVLPALPQVVCNYRDVRFESIRLPGCPRGVNPVVSYAVALSCQCALCRRSTTDCGGPKDHPLTCDDPRFQDSSSSKAPPPSLPSPSRLPGPSDTPILPQ

Tests used:
[1] = target: B2; assay: displacement of biotinylated-hCG by unlabeled hCG on transfected Sf9 cells, HRP-streptavidin ELISA
Experimental: A competitive binding assay was performed to determine whether hCG would bind to the chimeric protein containing both hLH-R-ECD and hCG-β-CTP. After 24 hr of transfection with recombinant baculovirus, Sf9 insect cells were incubated for 24 hr at 27° C. with 20 ng/μl of biotinylated-hCG and increasing concentrations of unlabeled hCG as the competitor. The Sf9 cells infected with the recombinant baculovirus containing ECD of LH-R alone was set up as the control. The binding of biotinylated-hCG on the surface of the Sf9 insect cells was examined by ELISA using horseradish peroxidase (HRP)-streptavidin conjugate.

[2] = target: recombinant chimeric hLH-R-hCG-β fusion protein (full-length human lutropin hormone receptor, Arg-Ser linker, … (human)); assay: cell-based or functional assay

B1
binding result [1]: binds

B2
intracellular cAMP, increase over baseline [2]: ~6 fold
